Assay results reported in the DeepSol protein solubility set.

Assay: soluble on expression in E. coli; label from the status in PepcDB or PDB records

Sequence | soluble on expression in E. coli
MMEERANLMHMMKLSIKVLLQSALSLGRSLDADHAPLQQFFVVMEHCLKHGLKVKKSFIGQNKSFFGPLELVEKLCPEASDIATSVRNLPELKTAVGRGRAWLYLALMQKKLADYLKVLIDNKHLLSEFYEPEALMMEEEGMVIVGLLVGLNVLDANLCLKGEDLDSQVGVIDFSLYLKDVQDLDGGKEHERITDVLDQKNYVEELNRHLSCTVGDLQTKIDGLEKTNSKLQEELSAATDRICSLQEEQQQLREQNELIRERSEKSVEITKQDTKVELETYKQTRQGLDEMYSDVWKQLKEEKKVRLELEKELELQIGMKTEMEIAMKLLEKDTHEKQDTLVALRQQLEEVKAINLQMFHKAQNAESSLQQKNEAITSFEGKTNQVMSSMKQMEERLQHSERARQGAEERSHKLQQELGGRIGALQLQLSQLHEQCSSLEKELKSEKEQRQALQRELQHEKDTSSLLRMELQQVEGLKKELRELQDEKAELQKICEEQEQALQEMGLHLSQSKLKMEDIKEVNQALKGHAWLKDDEATHCRQCEKEFSISRRKHHCRNCGHIFCNTCSSNELALPSYPKPVRVCDSCHTLLLQRCSSTAS | soluble
MGSDKIHHHHHHLTRREVVGLKLGDLMPRDLLKQELFVQDLKSHINDNVEIILKIRSKKLQETKDSKKFLIMTLEDRTGTVRAVDWYNAELNDQRLKEGNVVRVKGRVVFFENRIQINVDNDYGAIKILKSDEYDYTKFVAQSKKDLEILKKKLFVLLDQIKDQHYKKLLKAFFENKEFSEKFFRSPAGMRVHHAYIGGLLEHSVTVAEICKEISKYYSLDRDLLITGALLHDVGKVEEYRITESGIEVTTEGELKGHIAIGAAMVREMAKKLSIPEHKILELEHIILSHHGELEWGSPVVPKTIEALIVHHVENLDSKIARFIEVMESSESNQGWTEYDRNLGRRIFLRGGGTIVSLTV | not soluble
GSHMSEWKARRFWASVGIHKEEGGWAVLLDERPLRTPGKQPLRLPTEALALAIAEEWQAVQEVIDPNAMPLTRSANSAIEKVAPQFDAVAAMLGDYGGTDLLSYRADAPEALVRAQAEGWDPLIDWAATELRAPLRITHGVIPVPQDPVVLLKLRAEVASLDPFGLTALHDLVTLPGSLILGLAVIRGRIDAPTAHALSRIDEEFQAERWGRDEEAEAQAASRLAAMRDSERFWHLTRG | soluble
MGSDKIHHHHHHMDIPHQRLVYFQVTIEAGSVRQAAARLDIAPSAVSRQLSLIEEALGAPLLERSRQGVVPTPVGEMLLDYCRKRAALDDRFSETLDAYQRLETGHLSLTVGEGFVGDLLDTPLRTFTERYRGVRLDVNTGSTSDIIEAVVEDEAHIGLMYHERLHPQLRFWHSSRQPLVALMSPSHPLAAVENELPLATLSEHPMALWRTGHGVRQLVDEGFREAGLGQHVTMQTNSLSVLLHAARSELTLTLLPAFAAARELEDGALVARAVDCERFRQAHAHIITRVGRRMPKAGLQLLRHLERWMRAFKSRLVSG | not soluble
GPGSVPPKKPTEVPKLVRINTNEKGITNVQLARAPVNSMSLELFQELNQWMLWLGCNEETKAVIISSAIPTVFSAGLEFSEVHNPKPDRIAVFWQSFQEMWRILDTFPKPIIAAITGNSPAAGCIIAMGCDYRVMARGPKGNTNNNRLYRIGLNETKLGLVPPPWTVSAYAYLLGSRQAEEMLQLGETPVADDARNLGLIDEVAADEERAIEVAYQQAERFLSVPQEARRVSRDMARCEYLRLLATEDDRNYDTEFFTQYMLRPEVQKNLESYLERLKSRSRK | not soluble
MGEYYHATVNGVVEYGAFVDLSEHVSGLIHESTYSGDPDLAVDDDVIVHLSAVRDNGDLSFEFVDPEEYRTEQRSLEHHHHHH | not soluble
MAIMRVNPTRMELTRLKKRLQVARRGHKLLKDKLDELMKQFLDLVRKNKELREKVEEMLMKAHQDFLIARAVMSSEGLEAALMLPKQSISLDVSTQNIMSVEVPVLKFTTSSSDESDIYPYGFASTSGELDGAILTLSKVLPYMLELAQMEKSSQLLAQEIEKTRRRVNALEYVMIPQLTETIKYISMKLDENERGNITRLMKVKDMMLEQAHNFKEKLNEA | soluble
SESSGGPTSSLAGTSRNTHVEDDDVVFIESVQPPICAPAIPNERNFVFASSKHENPPGTDSTISPSWRDLTSQKGNLCETIVIDDEGDTDTNGGEEKNPTDFIEWGPNGNKSSTKNVDFPIASLSRSKTKTAVGPFNPGRIDVTDAFQNGRFAVHHNPDSWISQSASFPRNQKQQGVDSLSPVASLPKQIFQPSNQQPTKPVKVTCANCKKPLQKGQTAYQRKGSAHLFCSTTCLSSFSHKRTRKTRNVMCKK | soluble
MGSDKIHHHHHHMSNRDKILSYRDLIKKKLIPLINADYVLLDVPNHPNIGDNLIWEGELRFLENIHYKCIYSANVHNWDENKIKDAKIILFHGGGNWGDLYRECQEHRLYIAEKFKDKRIIIFPQTVWYNNKSILPIDCKIFNNHADIHICLRDQMSMDILSNYVDAKKLYLLPDMAFFVDVEAMPMRKVRNDCILFMLRTDSEIDDITFKLESDFDVKDWPTFSNNKYILLLYSYFEYFKVVVSKRLQKCKFLNVFVSPIYGLNRKNNRERYIYKGINFFSNYEIIYTTRLHGLILGILMDKKVIIVDNKYNKCKNYYDTWLREFDNIELMS | not soluble
GDSTILKVLQSNIQHVQLYENPVLQEKALTCIPVSELKRKAQEKLFRARKLDKGTNVSDEDFLLLELLHWFKEEFFRWVNNIVCSKCGGETRSRDEALLPNDDELKWGAKNVENHYCDACQLSNRFPRYNNPEKLLETRCGRCGEWANCFTLCCRALGFEARYVWDYTDHVWTEVYSPSQQRWLHCDACEDVCDKPLLYEIGWGKKLSYIIAFSKDEVVDVTWRYSCKHDEVMSRRTKVKEELLRETINGLNKQRQLSLSESRRKELLQRIIVELVEFISPKTPRPGLEHHHHHH | soluble
GPGSMARITVELLRRRAEHNEGCLSNLKEIALHQQDIEKIDLIGDACRQLEIIYLCNNYISRIEGLRHLKWLKYLNLAVNNITVIDGLQGCEALERLDLTLNFIAEPTSVQTLLANPFLESLHLTGNPCTKTEGYRAYVIHSLPQLKELDGDEIIRAERITARQAEDVVIEVAEEEAVRVREAERIKQEMLAKGIDPFPPKYNDKGERVYGHTPEERLQILHEQQEMERKKREEQSTPQPGSIAALHQELKRQQQPSQRLTAEEERSKFGRLLLRNEPRVPFHMNQDDAAEFVLTVDPGKFISTTLLSVQVEVDVVRVFIKGKLLQVPVEDELAADAAQVQRSTTTGQLKVMVPYAPEVQERRGGARARLRGLREVTEKASSATGTSAASTTPPPTASPPKVAEPPTRSTLLEIEGRMRGSSSPSLSINQPGTTGTLSSSGKNTTTASSGIVKSVKDISPVPSTMKVSADAATLASQSMTAVLTPTTAASSH | soluble
MSLEVKLNENERIDDLQCKGLKIIQKKAGFCFGLDAVLLANFADIKKGDTVIDLGTGTGIIAILIAGKTEAKSIIGLEIQEEMAEMAQRSVKLNNLEDRVKIVCGDIKNSVEMFGASKFDVVVTNPPYMNQGGGLLNISDTKAISRHEIKCTLEDVIKASSKLLVPGGQFAMVHRPDRLVDIIWLMRKYSIEPKYLQFVHPYPRKKANLILIKGARQGRVQLKMLEPLYVYDENGNYSKEIDNIYGREVRNEGHHHHHH | soluble
MGSDKIHHHHHHMPTIVFVGAGSVRYTIKLVGDLAKTPDLYGSRLVLMDIDEERLKATYILVTKYLRELNAEYTVEQTTSLEEALEGADFVINTALYRAPGHEDGYVHYEIMREVGERHGYYRGIDSQELNMVSDYYTLSNYNHLKMSLDIAKAVEKIAPNAWILQTANPVFEITQLVKRLTKAKIVGFCHGYAHVFHLAKVLGVEPEELDWQVAGVNHAIWMNRFRCRGEDLYPKLDEWIEENASRWEPKNPWDVDFSPAAIDMYRFYGMYPIGDTVRSGTWKYHYDLETKKRWYGKFGGIDNEVERPKFYESLREQRKRLMELAKEVEKDPTIELTKVWPEVFTTGSESVEQHIPFINALVNDKKARLVLNVENRGVIKGIPDDVMVEVPVVVDKEGIHPEKIEPDLTDRIKKFYLLPRILRMEWALEAFISGDRRVLEEILVRDPRTRSYEQAVAVIDDILNLPFNEEMKKHYGS | not soluble
KIKRMECFDISHTMGNQTVASCVVFNKEGPLKSDYRRFNIEGITGGDDYAAMEQVLQKRYERDLEEDKIPDIIFIDGGKGQLNRALNVFQHLQVKWDKNRPHLIGVAKGVDRRAGQEVLIISKQDREIHLPDDSLALHLIQHIRDESHNHAISGHRKKRQKAF | not soluble
